Data reported in article PMC9792514, “C-type lectin-like receptor (CLEC)-2, the ligand of podoplanin, induces morphological changes in podocytes” (Scientific Reports, 2022).

Key:
Fc protein (control) = experiment: native gel or EMSA; Blue Native PAGE of the purified recombinant proteins in aqueous solution
mouse podoplanin (PDPN) = target: T1, mouse podoplanin (PDPN) (mouse (endogenous in primary cultured …, UniProt Q62011 23-172)); experiment: cell-based or functional assay
T1 sequence (looked up): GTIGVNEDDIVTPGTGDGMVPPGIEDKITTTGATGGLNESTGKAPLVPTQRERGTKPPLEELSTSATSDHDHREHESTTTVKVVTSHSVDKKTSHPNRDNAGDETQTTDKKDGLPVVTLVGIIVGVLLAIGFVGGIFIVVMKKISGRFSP

## Fc protein (control) (domain or fragment)
Fc protein (control)
  stoichiometry N: 4

B1: StepTagII-3FLAG-CLEC-2, a fusion of StrepTactin FLAG double tags and the C-terminal extracellular domain of mouse CLEC-2 (51-229) (domain or fragment, UniProt Q9JL99 51-229, looked up)
chain: GIMSVTQQKYLLAEKENLSATLQQLAKKFCQELIRQSEIKTKSTFEHKCSPCATKWRYHGDSCYGFFRRNLTWEESKQYCTEQNATLVKTASQSTLDYIAERITSVRWIGLSRQNSKKDWMWEDSSVLRKNGINLSGNTEENMNCAYLHNGKIHPASCKERHYLICERNAGMTRVDQLL
Mouse podoplanin (PDPN)
  pERM/ERM ratio by Western blot of glomerular lysate after infusion of FLAG-CLEC-2 (5 ug/g body weight), against controls: 0.65 fold
